Data as given in PMC8171346, “Anomalous structural dynamics of minimally frustrated residues in cardiac troponin C triggers hypertrophic cardiomyopathy†” (Chemical Science, 2021).

What was measured:
[1] = biological target: human cardiac troponin C C84Y (human, UniProt P63316 1-161, C84Y); test: NMR titration; 1H-15N HSQC spectra at 37 °C of WT or C84Y cTnC in the Ca2+-bound (primed) state, without peptide and with increasing concentrations of peptide (15, 40, 70, 120, 150 and 200 μM); normalized 1H chemical shifts against peptide concentration; settings: both partners purified
[2] = biological target: human cardiac troponin C, wild type (human, UniProt P63316 1-161); test: as above; settings: both partners purified

B1: inhibitory cardiac TnI peptide iTnI128-147 (peptide)
peptide: Ac-LTQKIFDLRGKFKRPTLRRV-NH2
notes: source: synthetic peptide (Genscript, purity higher than 95%)
Kd [1]: 66 ± 5.5 µM
Kd [2]: 59 ± 3.6 µM
